Experiment: yeast display, Sf9 membrane polyspecificity reagent, FACS + sequencing; frameworks hold sequencing errors
How it was run: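 Nanobodies from a synthetic yeast display library (Saccharomyces cerevisiae BJ5465), induced 36–48 hours with galactose, were stained 1 hour at 4 °C with 10% biotinylated, detergent-solubilized Sf9 membrane reagent, enriched on streptavidin microbeads, then FACS-sorted. Anti-HA (expression) and streptavidin (reagent binding) fluorescence set low and high (top ~1%) gates. Polyreactivity labels come from the gate of origin. Genes were colony-PCR amplified, MiSeq 2 × 250 sequenced and filtered by CDR length.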

Sequence	polyreactivity (PSR sort gate)
QGQLVESGGGLVQAGGSLRLSCAASGFIFSKYAMGWYRQAPGKERELVAAISYRTVRTYYADSVKGRFTISRDNAKNTVDLQMNSLKPEDTAVYYCAADSRYWLYDYWGQGTQVTVSS	high polyreactivity
QGQLVESGGGLVQAGGSLRLSCAASGFNFRRYAMGWYRHAPGKERELVAVITSGGSTYYADSVKGRFTISRDYAKNTVYLQMNSLKPEDTAVYYCASRYYWYSQEYVLSSWWGDYWGLGTQVTVSS	high polyreactivity
QGQLVESGGGLVQAGGSLRLSCAASGFTFRGYAMGWYRQAPGKERELVATITSGGDTNDADSVKGRFTISRDNAKKTVYLQMNSLKPEDTAVYYCAAHDWEFVEEAGPVPWTPYDYWGQGTQVTVSS	low polyreactivity
QGQLVESGGGLVQAGGSLRLSCAASGFTFVYNAMGWYRQAPGKERELVAAITSGGNTYYADSVKGRFTISRDNAKNTVYLQMNSLKPEDTAVYYCAALSYYRFSQEDDYWGQGTQVTVSS	high polyreactivity
QGQLVESGGGLVQAGGSLRLSCAASGGIFDSNAMGWYRQARGKERELVAAISDSGGSTYYADSVKGRFTITRDNAKNTVYLQMNSLKTDDTAVYDCAADSDYHFLNYRFGMDYWGQGTQVTVSS	low polyreactivity
QGQLVESGGGLVQAGGSLRLSCAASGGIFTDYAMGWYRQAPGKERELVAAITRRGGRTYYADSVKGRFTISRDNAKNPVYLQMNSLKPEDTAVYYCAATRSGEYDYWGQGTQVTVSS	high polyreactivity
QGQLVESGGGLVQAGGSLRLSCAASGIILSAYALGWYRQAPGNERELVAAITRRGGRTYYADSVKGRFTISRDNAKNTVYLQMNSLKPEDTAVYYCATVQSGRVRTYDYWGQGTQVTVSS	high polyreactivity
QGQLVESGGGLVQAGGSLRLSCAASGISLKYAMGWYRQAPGKERELVASISSRGTSTYYADSVKGRFTISRDNAMNTVYLQMNSLKPEDTAVYYCNTVPPYWWGYWYKGDHWGQGTQGTVSS	high polyreactivity
QGQLVESGGGLVQAGGSLRLSCAASGRIFVANAMGWYRQAPGKERELVAAISGRGSRTYYADSVKGRFTISRDNAKKTVYIQMNSLKPEETAVYSCAARYRYDGRYDYWGPGTQVTVSS	high polyreactivity
QGQLVESGGGLVQAGGSLRLSCAASGRIFVIYAMGWYRQAPGKERELVAAISSRGGTTYYADSVKGRFTISRDNAKNTVYLQMNSLKPEDTAGYYCNVARFYHIYDYWGQGTHVTVSS	high polyreactivity
QGQLVESGGGLVQAGGSLRLSCAASGRIFVTYAMGWYRQAPGKERELVATINSGGSTYYADSVKGRFTISRDNAKNTVYLQMNSLKPEDTAVYYCNTDFGQAHTLSWYEDMDYWGQGTQVTVSS	low polyreactivity
QGQLVESGGGLVQAGGSLRLSCAASGRIFYQNDMGWYIQAPGKERELVADIASGGSTYYADSVKGRFTISRDNAKNTVYLQMNSLKPEDTAVYYCASAVLYGDGWYYYWGQGTQVTVSS	low polyreactivity
QGQLVESGGGLVQAGGSLRLSCAASGRSVARYAMGGYRQAPGKERELVAAITVSGDNTYYADSVKGRFTISRDNAKNTVYLQMNSLKPEDTAVYYCAVRAVLLIGFFEYDYWGQGTQVTVSS	low polyreactivity
QGQLVESGGGLVQAGGSLRLSCAASGRTFKVYAMGWYRQAPGKERELVAAISFSGGSTYYADSVKGRFTISRDNAKNTVYLQMNSLKPEDTAVYYCATTYPGAIRDYWGQGTQVTVSS	high polyreactivity
QGQLVESGGGLVQAGGSLRLSCAASGRTFRYNAMGWYRQAPGKERELVAAITWGGGSTDYADSVKGRFTISRDNAKNTVYLQMHSLKPEDTAVYYCNADYIGNYHSIYQYDYWGQGTQVTVSS	low polyreactivity
QGQLVESGGGLVQAGGSLRLSCAASGRTFVRNAMGWSSQGPGKEREWVAAISSIGDSTYYAYSLKGRFTISRDNAKNTVYLQLNTLKPEDTAVYYCAAECVTSYYNYYHWGQGTQVTVSS	low polyreactivity

Sequence	polyreactivity (PSR sort gate)
QGQLVESGGGLVQAGGSLRLSCAASGSIFGENAMGWYRPAPGKERELVAAISSAGSTKYADSVKGRFTISRDNAKNTVYLQMNSLKPEDTAVYYCAAGYYRTSYPYSYYYWGQGTQVTVSS	low polyreactivity
QGQLVESGGGLVQAGGSLRLSCAASGSIFLGYAMGWYRQAPRKERELVAVITKSRGRTYYADSVKGRFTISRDNAKNTVYFQMNSLKPEDTAVYYCAKQPGSAYDYWGQGTQVTVSS	high polyreactivity
QGQLVESGGGLVQAGGSLRLSCAASGSIFRAYAMGWNRQAPGKERELVAAISWGGGSTSYADSVKGRFTISRDNAMNTVYLQMNSLKPEDTAVYYCAAELYLSRLRYWYDYWGHGTQVTVSS	high polyreactivity
QGQLVESGGGLVQAGGSLRLSCAASGSIFSHYAMGWYRQAPGKEMELVAAISRSGGSTYYADSVKGRFTISRDNAKNTVYLQMNCLKPEDTAVYYCAKEGDSGYWFDYWGQGTQVTVSS	low polyreactivity
QGQLVESGGGLVQAGGSLRLSCAASGSIFVRNAMGWYRQAPGKERELVAADSVKGRFTISRDNAKNTVYLQMNSLKPEDTAVYYCNKDYIIRRGAIVYYGFDYWGHGTQVTVSS	low polyreactivity
QGQLVESGGGLVQAGGSLRLSCAASGSSFANYDMGRYRQAPGKERELVAAITSDGSTYYADSVKGRFTISRDNAKNTVYLQMNSLKPEDTAVYYCAASTPSDAWVDDWGQGTQVTVSS	low polyreactivity
QGQLVESGGGLVQAGGSLRLSCAASGSTFGKYVMGWYRQAHGKERELVAAISRSGGSTYYADSVKGRFTISRDNAKNTVYLQLNSLKPDDTAVYYCAAYNGITSHLRFDYWGQGTQVTVSS	high polyreactivity
QGQLVESGGGLVQAGGSLRLSCAASGSTFGYNVMGWYRQAPGKERELVAAINYSGVRTYYADSVKGRFTISRDNAKNTVYLQMNSLKPEDTAVYYCNATPTRAVGPYQYNYWGQGTQVTVSS	high polyreactivity
QGQLVESGGGLVQAGGSLRLSCAASGSTFRLYAMGWYRQAPGKERELVAAISQRGASTYADSVKGRFTISRDNAKNTLNLQMNSLKPEDTAFYYCSAVRNCRYWYRQYGFCGQGTQVTVSS	high polyreactivity
QGQLVESGGGLVQAGGSLRLSCAASGSTYLGNDMAWYIQAPGKERELVATITGSSGSTYYADSVKGRFTISRDNAKNTVYLQMNSLKPEDTAVYYCNTVYNYWDCYDYWGQGTQVTVSS	low polyreactivity
QGQLVESGGGLVQAGGSLRLSCAASVRTSVINAMGWYRQAPGKERELVAAITKRGGSTYYADSVKGRFTISRDIAKNTVYLQMNSLKPEDTEVYYCAKYPIYIQYDSWGQGTQVTVSS	high polyreactivity
QGQLVESGGGLVQAGGSLRLSCAAYGRIFYVYAMGWYRQAPGKERELVATITSSGDGTYYADSVKGRFTISRDNAKNTGYLQMNSLIPEDTAVYYCAARSWPYSQTGKRFVEYYYWGQGTQVSVSS	low polyreactivity
QGQLVESGGGLVQAGGSLRLSCADSGNTFNPNAMGWYRQAPGKERELVAVIRFRGVSKYYADSVKGRFTISRDNAKNSVYLQMNSLKPEDTAVYYCAADFLYYYLRYYFWGQGTQVTVSS	high polyreactivity
QGQLVESGGGLVQAGGSLRLSCAGSGRTFSSNAMGWYRQGRGKVRELVASISFRGGRTYYADSVKGRFTISRHNAKKTVYLQMNSLKPEDTAVYYCVSRTKRTGYGYWGQGTQVTVSS	high polyreactivity
QGQLVESGGGLVQAGGSLRLSCPASGNTFKYYAMGWYRQAPGKEWELVAAISYSGGSTYYADSVKGRFTISRDNAKNTVYLQMNSLKPEDTAVYYCAADPTNSYLEYDEWGQGTQVTVSS	low polyreactivity
QGQLVESGGGLVQAGGSLRLSSAASGSTFARYAMGWYRQAPGKERELVAVIRSGGSTNYADSVKGRFTISRDNAKNTVYLQMNSLKPEDTAGAADLWTLHRWATYGYWGQGTQVTVSS	low polyreactivity

From the nanobody polyreactivity screen of Harvey et al. (2022)
